These results are taken from patent US20180243244A1.

Like-named read-outs stand apart in the source and are kept apart here. No end group written: not given here.

Experiment [1] addresses p62-D3-GST, Q13501.
The target of experiment [2] is p62 (Homo sapiens (Human)), Q13501. Description: X-peptide pull down of in vitro transcribed and translated p62, Western blot. Background: A western blot detects proteins with antibodies after separation by electrophoresis.
In experiment [3] the target is p62-D3-GST, Q13501. This is another data set of the same source.
Experiment [4] concerns the target p62-D3-GST, Q13501. Briefly: SPR (Biacore), legend of FIG. 6. (In general: SPR reads the build-up and loss of mass on a sensor chip optically.)

What is called Kd is the equilibrium constant for the complex coming apart. A lower Kd goes with a tighter complex. What is called koff is a measure of how fast the partners let go of each other. A higher koff goes with fast dissociation. In general, kon refers to the second-order rate constant of association. Low values mean slower complex formation, high ones faster complex formation. As to FIFSTIEGRTY (not fully specified) [F11 peptide (biotin-labeled X-peptide with N-terminal Phe)], the Kd in experiment [1] amounted to 3.4 µM. The molecule also gave an efficiency of precipitating p62 in experiment [2] of 5%. In experiment [3], this molecule returned a Kd of 3440 nM, a koff of 0.0019 s⁻¹ and a kon of 550 M⁻¹ s⁻¹.

Regarding RIFSTIEGRTYK (not fully specified) [R11 peptide (biotin-labeled X-peptide with N-terminal Arg)], the fold binding force against N-recognins containing a URB box in experiment [1] is 50 times. In addition, in experiment [2], the efficiency of precipitating p62 is over 40%. For the same molecule, the Kd in experiment [4] was 40 nM. In experiment [3], this molecule registered a Kd of 44 nM, a koff of 0.0005 s⁻¹ and a kon of 12300 M⁻¹ s⁻¹.
